The target of experiment [1] is C-terminal fluorescein-labeled H3 peptide (1–12) (UniProt P68431). Nature of the experiment: MST.
Experiment [2] concerns the target third BIR domain of BIRC2 (BIRC2_(BIR3)), GST cleaved (human) (UniProt Q13490). Nature of the experiment: other fluorescence titration.

The record followed here is publication PMC10702411.

Sequence of third BIR domain of BIRC2 (BIRC2_(BIR3)), GST cleaved (human) (Q13490 261-346): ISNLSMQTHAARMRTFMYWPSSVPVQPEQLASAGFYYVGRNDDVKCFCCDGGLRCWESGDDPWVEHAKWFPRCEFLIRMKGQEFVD

In general, Kd refers to a measure of binding affinity in units of concentration. A low value points to a tighter complex. For the substance “third BIR domain of BIRC2 (BIRC2_(BIR3)), GST cleaved (from UniProt Q13490 261-346) (domain or fragment)”, the dissociation constant Kd in experiment [1] was determined as 340 nM.
Consider “H3_(1–12) peptide (residues 1–12 of H3) (from UniProt P68431 2-13)”, for which the equilibrium dissociation constant (Kd) in experiment [2] was determined as 400 nM.
